Source: doi:10.1101/2022.05.07.491048

The substances below were run against b-His6-BAK_(16-186) (UniProt Q16611) (assay: not given).
Sequence of UniProt Q16611 (Q16611 16-186): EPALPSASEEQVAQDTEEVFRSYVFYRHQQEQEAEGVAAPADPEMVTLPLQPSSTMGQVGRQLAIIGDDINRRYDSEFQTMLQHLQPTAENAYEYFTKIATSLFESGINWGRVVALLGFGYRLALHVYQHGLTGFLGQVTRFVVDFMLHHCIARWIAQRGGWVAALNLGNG
Substance BNIP5 BH3 peptide, 5-FAM labelled has a Kd of 0.424 µM.

Each substance was assayed against b-His6-BAK_(16-186) (UniProt Q16611) (assay: BLI).
Work on His6-SUMO-BNIP5 BH3 (peptide) yielded a koff of 0.16 s⁻¹.

These substances were tested against b-His6-BAK_(16-186) (UniProt Q16611) (assay: fluorescence polarisation).
Work on BNIP5 BH3 peptide, 5-FAM labelled yielded a Kd of 0.4 µM.
For CASP3 BH3 peptide, 5-FAM labelled, the Kd was greater than 20 µM.
Work on NBEAL2 BH3 peptide, 5-FAM labelled yielded a Kd greater than 20 µM.
In the case of PXT1 BH3 peptide, 5-FAM labelled, the Kd is reported as 11 µM.
SLC19A1 BH3 peptide, 5-FAM labelled showed a Kd greater than 20 µM.
For SPNS1 BH3 peptide, 5-FAM labelled, the Kd was greater than 20 µM.
TERT BH3 peptide, 5-FAM labelled showed a Kd greater than 20 µM.
Substance TRIM58 BH3 peptide, 5-FAM labelled has a Kd greater than 20 µM.
TRPM7 BH3 peptide, 5-FAM labelled was tested, and the Kd was greater than 20 µM.
